Results: patent US20120263730A1 (DEUTSCHES KREBSFORSCHUNGSZENTRUM, published 2012)

T1: hRspo3ΔC-AP (human Rspondin-3 aa 1-209 fused to alkaline phosphatase) (human, UniProt Q9BXY4 22-209)
T1 construct: partially purified for the in vitro assay; also called Rspo3-AP; hRspo3-AP; not shown: alkaline phosphatase (AP) tag
T1 sequence: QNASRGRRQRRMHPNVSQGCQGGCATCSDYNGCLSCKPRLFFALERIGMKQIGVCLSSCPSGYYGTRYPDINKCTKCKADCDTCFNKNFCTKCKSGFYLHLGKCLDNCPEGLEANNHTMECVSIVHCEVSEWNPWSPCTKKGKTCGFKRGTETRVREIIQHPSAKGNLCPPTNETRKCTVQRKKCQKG

T2: Wnt5aV5 (V5-tagged Wnt5a) (mouse, UniProt P22725 62-380, limits assumed)
T2 construct: The construct text says 'mWnt3a was subcloned' for pPGKmWnt5aV5, which is probably a slip; Conditioned medium from stably transfected L cells; also called mWnt5aV5; recombinant Wnt5a; not shown: V5 tag
T2 sequence (looked up): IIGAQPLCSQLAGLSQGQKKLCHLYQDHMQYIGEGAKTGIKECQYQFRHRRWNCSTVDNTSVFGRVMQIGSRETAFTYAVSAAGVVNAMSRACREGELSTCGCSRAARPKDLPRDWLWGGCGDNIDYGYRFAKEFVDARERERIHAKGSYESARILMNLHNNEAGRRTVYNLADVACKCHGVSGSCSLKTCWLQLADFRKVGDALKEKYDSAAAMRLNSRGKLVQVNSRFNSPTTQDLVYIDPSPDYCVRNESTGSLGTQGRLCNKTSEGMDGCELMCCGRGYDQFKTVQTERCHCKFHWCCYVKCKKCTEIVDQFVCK

T3: mouse Syndecan-1 (mouse, UniProt P18828 23-311, glycosaminoglycan chains (sites not given))
T3 construct: whole, on cells; Expressed on transfected HEK293T cells; also called Sdc1; mSdc1
T3 sequence (looked up): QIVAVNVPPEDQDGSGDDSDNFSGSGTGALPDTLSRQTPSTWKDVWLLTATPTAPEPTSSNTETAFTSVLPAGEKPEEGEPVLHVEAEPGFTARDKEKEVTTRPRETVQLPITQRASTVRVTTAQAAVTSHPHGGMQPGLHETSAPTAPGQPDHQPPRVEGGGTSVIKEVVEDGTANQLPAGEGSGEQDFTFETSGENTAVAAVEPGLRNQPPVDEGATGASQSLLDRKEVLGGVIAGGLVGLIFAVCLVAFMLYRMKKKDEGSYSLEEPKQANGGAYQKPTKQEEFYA

B1: N-streptag Sdc4ΔTMC (human Syndecan-4 extracellular domain, last 52 amino acids deleted, N-terminal Streptag-HA-CBP) (receptor)
chain: ESIRETEVIDPQDLLEGRYFSGALPDDEDVVGPGQESDDFELSGSGDLDDLEDSMIGPEVVHPLVPLDNHIPERAGSGSQVPTEPKKLEENEVIPKRISPVEESEDVSNKVSMSSTVQGSNIFERTE
modifications: sulfated glycosaminoglycan chains (GAGs)
notes: The Sdc4 signal peptide was replaced by that of mKremen2; Partially purified from conditioned medium of HEK293T cells and captured on streptavidin-coated plates; also called N-streptag-hSdc4ΔTMC; purified extracellular domain of Sdc4; not shown: Streptag-HA-CBP fragment of the pGLUE expression vector
B2: human Syndecan-4 (receptor)
chain: ESIRETEVIDPQDLLEGRYFSGALPDDEDVVGPGQESDDFELSGSGDLDDLEDSMIGPEVVHPLVPLDNHIPERAGSGSQVPTEPKKLEENEVIPKRISPVEESEDVSNKVSMSSTVQGSNIFERTEVLAALIVGGIVGILFAVFLILLLMYRMKKKDEGSYDLGKKPIYKKAPTNEFYA
modifications: glycosaminoglycan chains (GAGs)
notes: Expressed on transfected HEK293T cells; also called Sdc4; hSdc4
B3: hRspo1-AP (human Rspondin-1 fused C-terminally with alkaline phosphatase) (ligand, UniProt Q2MKA7 21-263, looked up)
chain: SRGIKGKRQRRISAEGSQACAKGCELCSEVNGCLKCSPKLFILLERNDIRQVGVCLPSCPPGYFDARNPDMNKCIKCKIEHCEACFSHNFCTKCKEGLYLHKGRCYPACPEGSSAANGTMECSSPAQCEMSEWSPWGPCSKKQQLCGFRRGSEERTRRVLHAPVGDHAACSDTKETRRCTVRRVPCPEGQKRRKGGQGRRENANRNLARKESKEAGAGSRRRKGQQQQQQQGTVGPLTSAGPA
notes: Used as conditioned medium from HEK293T cells; also called hRspol-AP; not shown: alkaline phosphatase (AP) tag

Assays:
[1] = target: T1, hRspo3ΔC-AP (human Rspondin-3 aa 1-209 …); assay: in vitro binding assay: N-streptag Sdc4ΔTMC on streptavidin-coated plates, serially diluted hRspo3ΔC-AP, bound AP activity by chemiluminescence, Scatchard plot
Experimental: For the in vitro binding assay white, high binding ELISA 96 well plates (Greiner) were coated overnight at 4° C. with 100 μL of 2 μg/mL Streptavidin in bicarbonate buffer (NaHCO₃, 50 mM, pH 9,6). Wells were washed 6 times with […] TBST and incubated with […] of blocking buffer (5% BSA, 1mM MgCl₂ on TBST) on a shaker for 1h at RT. The wells were loaded with […] N-streptag Sdc4ATMC protein in blocking buffer and allowed to bind overnight on a shaker at 4° C. Wells were washed 6 times with […] TBST and incubated with […] of blocking buffer for 1 h. For the binding experiments, […] of serially diluted hRspo3ΔC-AP were placed in wells coated with blocking buffer or N-streptag Sdc4ΔTMC. After 2 h incubation at RT wells were washed 6 times with […] TBST. Bound AP activity was measured using chemiluminescent SEAP Reporter Gene Assay (Roche). For each dilution, background binding value was subtracted from hRspo3ΔC-AP value. Binding data were analyzed by Scatchard plot using Excel.

[2] = target: T2, Wnt5aV5 (V5-tagged Wnt5a); assay: cell surface binding on transfected HEK293T cells
Excerpt: (A-C) Cell surface binding assays. (A, D) Rspo3 binds to syndecan 4 and glypican 3. HEK293T cells were transfected with indicated plasmids and V5-tagged Wnt5a or alkaline phosphatase tagged Rspo3, Dkk1, or TSP proteins were applied for cell surface binding as indicated. (B, C, E, F) Cells were transfected with indicated plasmids and conditioned media.
(§1) Protein conditioned media were produced by transient transfection of HEK293T cells with plasmids encoding fusion proteins: hRspol-AP, hRspo2ΔC-AP, hRspo3ΔC-AP, hRspo3TSP-AP, and dkk1-AP in complete DMEM. XWnt8-hFzd5 fusion was produced in serum-free medium (OPTIMEM I, Gibco) and conditioned medium was concentrated about 100-fold using Centricon Plus-20 filters (Millipore). Wnt5aV5 protein conditioned media was produced using L cells stable transfected with pWnt5aV5. For cell-surface binding experiments, 293T cells were plated on polylysine coated plates, transfected with genes to be tested using FuGENE 6 (Roche) for 48 h, incubated with conditioned media containing fusion proteins for 2 h on ice, washed with Hank's buffer, fixed for 30 min with 0,5mM DSP (Pierce) in Hank's-100mM HEPES, pH 7,2, washed with 0,1 M Tris pH 8,0 and stained with Fast Red (Roche). […] It should be compared with background staining obtained from cells transfected with control plasmid or other genes that are not able bind applied fusion protein.

[3] = target: B3; assay: cell surface binding, AP fusion on transfected HEK293T cells
Excerpt: (§2) (A) Rspo2 and Rspo3 bind to Syndecan-1, Syndecan-2, Syndecan-3 and Syndecan-4. […] HEK293 T-cells were transfected with indicated plasmids and alkaline phosphatase tagged Rspo1, Rspo2, Rspo3 and Rspo4 proteins were applied for cell surface binding as indicated. Cells were transfected with indicated plasmids and conditioned media containing alkaline phosphatise (AP)-fusion proteins of R-spondins were applied for cell surface binding and AP staining as indicated. (B) Cells were transfected with indicated plasmids and incubated with or without NaClO₃. After 24 h Rspo3-AP was applied for binding and proceeded for staining. (C) In vitro binding assay with N-streptag Sdc4ΔTMC purified from conditioned media of control or NaCIO₃ treated cells with purified Rspo3-AP (RU, relative units). (D) Scatchard plot analysis for in vitro binding assays with purified N-streptag Sdc4ΔTMC and Rspo3-AP. (E) Rspo3 binds to Glypican-1, Glypican-2, Glypican-3, Glypican-4, Glypican-5 and Glypican-6.
as §1

[4] = target: T4, mouse Syndecan-3 (mouse, UniProt Q64519 45-442, glycosaminoglycan chains (sites not given)); assay: as above
T4 construct: whole, on cells; Expressed on transfected HEK293T cells; also called Sdc3; mSdc3
Excerpt: as §2, §1

[5] = target: T3, mouse Syndecan-1; assay: as above
Excerpt: as §2, §1

T4 sequence (Q64519 45-442): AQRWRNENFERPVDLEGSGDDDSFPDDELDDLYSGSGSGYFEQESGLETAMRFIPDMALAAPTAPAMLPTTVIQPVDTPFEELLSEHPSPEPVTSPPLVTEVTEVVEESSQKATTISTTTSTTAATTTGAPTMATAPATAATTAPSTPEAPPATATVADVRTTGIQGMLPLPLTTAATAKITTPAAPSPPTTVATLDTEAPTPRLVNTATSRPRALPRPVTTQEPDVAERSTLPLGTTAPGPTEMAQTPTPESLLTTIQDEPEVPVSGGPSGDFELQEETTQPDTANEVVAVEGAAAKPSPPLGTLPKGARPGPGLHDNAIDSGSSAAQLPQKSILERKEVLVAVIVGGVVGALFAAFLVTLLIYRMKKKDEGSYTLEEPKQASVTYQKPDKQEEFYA

Binder: B1
Kd [1]: 880 pM

Binder: B2
binding result [2]: no binding
binding result [3]: no binding

Binder: B3
binding result [4]: no binding
binding result [5]: no binding
